Patent publication US20260008817A1, “CYCLIC PEPTIDE OR SALT THEREOF, AND USES THEREOF” (FUJIFILM Corporation, priority 2023, published 2026)
Positions of bridges follow the written chain, without caps; N, C: chain ends. No end group written: not given here. COCH2 = acetyl group that carries the bridge

What follows are substances tested against T1, Recombinant Human FGFR1 alpha (IIIc) Fc Chimera Protein (Homo sapiens, UniProt P11362) (assay: ELISA binding affinity of enzymatically synthesized peptide to FGFR). Details: ELISA luminescence signal at 10 nmol/L peptide, SEQ ID NO: 239 standardized to 1; enzyme synthesis product.
T1 construct: purchased R&D systems 658-FR-050
Description: The binding affinity of the peptide to FGFR was evaluated using an ELISA method.
The peptide used for the evaluation was enzymatically synthesized by the following method.
First, a fusion peptide (SEQ ID NO: 25) in which a translation enhancing sequence (SEQ ID NO: 22), a peptide, a Myc tag (SEQ ID NO: 23), and a HiBiT tag (SEQ ID NO: 24) were linked in this order was designed. Next, a template DNA sequence (SEQ ID NO: 26) was designed in which a T7 promoter sequence, a Shine-Dalgarno sequence, a sequence necessary for transcription and translation initiation, such as a start codon (ATG), was provided on the 5′ terminal side of the DNA sequence encoding the fused peptide, and a stop codon group was provided on the 3′ terminal side thereof. In a case where the triplet TAG codon is included in the template DNA sequence, the above-described codon is assigned to the codon of chloroacetylated lysine, and thus, the peptide encoded by the above-described DNA sequence is a cyclic peptide in which a thiol group of cysteine and a chloroacetyl group of chloroacetylated lysine spontaneously form a thioether bond.
The cell-free enzymatic synthesis of the polypeptide was performed in a translation solution containing a template DNA, PUREfrex 2.0 (GeneFrontier, PF201-0.25-5), and Aminoacyl tRNA (1). 1.75 μL ([…]) of the template DNA prepared to 50 ng/μL, 2.5 μL of PUREfrex 2.0 Solution I, 0.25 μL of Solution II, 0.5 μL of Solution III, and a dried product of Aminoacyl tRNA (1) (final concentration: 0.5 ng/μL) were mixed and mixture was subjected to a reaction at 37° C. for 1 hour.
The concentration of the enzymatically synthesized peptide was measured using the peptide diluted with Can Get Signal Immunoreaction Enhancer Solution I (TOYOBO, NKB-101), Nano-Glo HiBiT Lytic Detection System (Promega, N3040), and a chemical synthetic peptide for a calibration curve having a known concentration (SEQ ID NO: 33) according to the standard protocol of the Nano-Glo HiBiT Lytic Detection System.
The binding affinity of the enzymatically synthesized peptide to FGFR was measured by evaluating the amount of the peptide bound to FGFR by ELISA.
First, 5 ng of Recombinant Human FGFR1 alpha (IIIc) Fc Chimera Protein (R&D systems, 658-FR-050) was immobilized in each well of a 96-well plate, and blocked with Pierce Protein-Free (PBS) Blocking Buffer (Thermo, 37572), and a peptide diluted with Can Get Signal Immunoreaction Enhancer Solution I (TOYOBO, NKB-101) was then added and reacted at room temperature for 3 hours. After washing with 0.05% Tween 20-containing phosphate buffered saline (PBS), an anti-Myc antibody (Cell Signaling, 14038S) diluted with Can Get Signal Immunoreaction Enhancer Solution II (TOYOBO, NKB-101) was added and reacted at room temperature for 2 hours. After washing with 0.05% Tween 20-containing PBS, SuperSignal ELISA Femto Substrate (Thermo, 37075) was added, and the luminescence amount was measured. The dose-response relationship was calculated from using the difference between the luminescence amount in the well in which FGFR was immobilized and the luminescence amount in the well in which FGFR was not immobilized, and the concentration of the peptide at the time of reaction, and the binding affinity to FGFR was evaluated according to the following evaluation criteria. The evaluation result preferably satisfies the evaluation criteria A, B, or C.
In a case where a value of a luminescence signal emitted by the cyclic peptide set forth in SEQ ID NO: 239 at a reaction concentration of 10 nmol/L is standardized to 1, evaluation criteria of the luminescence signal value emitted by the peptide at a reaction concentration of 10 nmol/L is as follows. • A: 0.7 or more • B: 0.5 or more and less than 0.7 • C: 0.1 or more and less than 0.5 • D: less than 0.1.

T1 sequence (P11362 with tags, fused parts or gaps limits assumed): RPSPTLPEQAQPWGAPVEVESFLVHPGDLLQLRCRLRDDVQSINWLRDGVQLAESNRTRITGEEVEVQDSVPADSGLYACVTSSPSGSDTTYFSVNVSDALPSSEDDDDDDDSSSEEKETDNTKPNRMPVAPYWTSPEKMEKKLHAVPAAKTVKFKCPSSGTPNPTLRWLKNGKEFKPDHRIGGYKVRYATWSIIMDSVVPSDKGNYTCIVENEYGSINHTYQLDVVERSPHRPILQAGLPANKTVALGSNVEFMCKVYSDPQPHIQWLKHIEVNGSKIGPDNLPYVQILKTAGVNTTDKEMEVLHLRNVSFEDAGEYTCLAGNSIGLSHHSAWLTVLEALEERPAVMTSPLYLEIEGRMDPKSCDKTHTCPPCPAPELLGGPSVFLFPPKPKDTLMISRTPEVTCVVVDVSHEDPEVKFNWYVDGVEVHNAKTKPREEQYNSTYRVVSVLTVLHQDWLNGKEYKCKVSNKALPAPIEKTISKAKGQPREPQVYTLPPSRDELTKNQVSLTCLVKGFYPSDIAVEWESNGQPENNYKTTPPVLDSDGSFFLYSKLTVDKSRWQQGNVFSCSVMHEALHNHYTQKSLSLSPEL

| Substance | Evaluation result of binding affinity to FGFR |
| --- | --- |
| 77 (ICVYTWDAHAHSLHAALTK(COCH2)I; thioether 2-19 (inferred)) [compound 77] | B (0.5 or more and less than 0.7) |
| 78 (ICVYTSDAHAHSLHAALTK(COCH2)I; thioether 2-19 (inferred)) [compound 78] | C (0.1 or more and less than 0.5) |
| 79 (ICVYTHDAHAHSLHAALTK(COCH2)I; thioether 2-19 (inferred)) [compound 79] | C (0.1 or more and less than 0.5) |
| 80 (ICVYTFAAHAHSLHAALTK(COCH2)I; thioether 2-19 (inferred)) [compound 80] | C (0.1 or more and less than 0.5) |
| 81 (ICVYTFGAHAHSLHAALTK(COCH2)I; thioether 2-19 (inferred)) [compound 81] | C (0.1 or more and less than 0.5) |
| 82 (ICVYTFPAHAHSLHAALTK(COCH2)I; thioether 2-19 (inferred)) [compound 82] | C (0.1 or more and less than 0.5) |
| 83 (ICVYTFVAHAHSLHAALTK(COCH2)I; thioether 2-19 (inferred)) [compound 83] | C (0.1 or more and less than 0.5) |
| 84 (ICVYTFFAHAHSLHAALTK(COCH2)I; thioether 2-19 (inferred)) [compound 84] | C (0.1 or more and less than 0.5) |
| 85 (ICVYTFYAHAHSLHAALTK(COCH2)I; thioether 2-19 (inferred)) [compound 85] | C (0.1 or more and less than 0.5) |
| 86 (ICVYTFWAHAHSLHAALTK(COCH2)I; thioether 2-19 (inferred)) [compound 86] | C (0.1 or more and less than 0.5) |
| 87 (ICVYTFNAHAHSLHAALTK(COCH2)I; thioether 2-19 (inferred)) [compound 87] | A (0.7 or more) |
| 88 (ICVYTFSAHAHSLHAALTK(COCH2)I; thioether 2-19 (inferred)) [compound 88] | C (0.1 or more and less than 0.5) |
| 89 (ICVYTFDGHAHSLHAALTK(COCH2)I; thioether 2-19 (inferred)) [compound 89] | B (0.5 or more and less than 0.7) |
| 90 (ICVYTFDPHAHSLHAALTK(COCH2)I; thioether 2-19 (inferred)) [compound 90] | B (0.5 or more and less than 0.7) |
| 91 (ICVYTFDLHAHSLHAALTK(COCH2)I; thioether 2-19 (inferred)) [compound 91] | C (0.1 or more and less than 0.5) |
| 92 (ICVYTFDIHAHSLHAALTK(COCH2)I; thioether 2-19 (inferred)) [compound 92] | C (0.1 or more and less than 0.5) |
| 93 (ICVYTFDVHAHSLHAALTK(COCH2)I; thioether 2-19 (inferred)) [compound 93] | C (0.1 or more and less than 0.5) |
| 94 (ICVYTFDYHAHSLHAALTK(COCH2)I; thioether 2-19 (inferred)) [compound 94] | C (0.1 or more and less than 0.5) |
| 95 (ICVYTFDWHAHSLHAALTK(COCH2)I; thioether 2-19 (inferred)) [compound 95] | C (0.1 or more and less than 0.5) |
| 96 (ICVYTFDNHAHSLHAALTK(COCH2)I; thioether 2-19 (inferred)) [compound 96] | C (0.1 or more and less than 0.5) |
| 97 (ICVYTFDQHAHSLHAALTK(COCH2)I; thioether 2-19 (inferred)) [compound 97] | A (0.7 or more) |
| 98 (ICVYTFDSHAHSLHAALTK(COCH2)I; thioether 2-19 (inferred)) [compound 98] | A (0.7 or more) |

Other lines, results leading:

| Evaluation result of binding affinity to FGFR | Substance |
| --- | --- |
| C (0.1 or more and less than 0.5) | 99 (ICVYTFDTHAHSLHAALTK(COCH2)I; thioether 2-19 (inferred)) [compound 99] |
| A (0.7 or more) | 100 (ICVYTFDEHAHSLHAALTKI; Description of Artificial Sequence: Cyclic peptide) [compound 100] |
| A (0.7 or more) | 101 (ICVYTFDRHAHSLHAALTKI; Description of Artificial Sequence: Cyclic peptide) [compound 101] |
| B (0.5 or more and less than 0.7) | 102 (ICVYTFDHHAHSLHAALTKI; Description of Artificial Sequence: Cyclic peptide) [compound 102] |
| A (0.7 or more) | 103 (ICVYTFDAAAHSLHAALTKI; Description of Artificial Sequence: Cyclic peptide) [compound 103] |
| A (0.7 or more) | 104 (ICVYTFDAGAHSLHAALTKI; Description of Artificial Sequence: Cyclic peptide) [compound 104] |
| A (0.7 or more) | 105 (ICVYTFDALAHSLHAALTKI; Description of Artificial Sequence: Cyclic peptide) [compound 105] |
| C (0.1 or more and less than 0.5) | 106 (ICVYTFDAIAHSLHAALTKI; Description of Artificial Sequence: Cyclic peptide) [compound 106] |
| C (0.1 or more and less than 0.5) | 107 (ICVYTFDAVAHSLHAALTKI; Description of Artificial Sequence: Cyclic peptide) [compound 107] |
| B (0.5 or more and less than 0.7) | 108 (ICVYTFDAFAHSLHAALTKI; Description of Artificial Sequence: Cyclic peptide) [compound 108] |
| B (0.5 or more and less than 0.7) | 109 (ICVYTFDAYAHSLHAALTKI; Description of Artificial Sequence: Cyclic peptide) [compound 109] |
| C (0.1 or more and less than 0.5) | 110 (ICVYTFDAWAHSLHAALTKI; Description of Artificial Sequence: Cyclic peptide) [compound 110] |
| A (0.7 or more) | 111 (ICVYTFDANAHSLHAALTKI; Description of Artificial Sequence: Cyclic peptide) [compound 111] |
| A (0.7 or more) | 112 (ICVYTFDAQAHSLHAALTKI; Description of Artificial Sequence: Cyclic peptide) [compound 112] |
| A (0.7 or more) | 113 (ICVYTFDASAHSLHAALTKI; Description of Artificial Sequence: Cyclic peptide) [compound 113] |
| A (0.7 or more) | 114 (ICVYTFDATAHSLHAALTKI; Description of Artificial Sequence: Cyclic peptide) [compound 114] |
| A (0.7 or more) | 115 (ICVYTFDADAHSLHAALTKI; Description of Artificial Sequence: Cyclic peptide) [compound 115] |
| A (0.7 or more) | 116 (ICVYTFDAEAHSLHAALTKI; Description of Artificial Sequence: Cyclic peptide) [compound 116] |
